The values below come from publication PMC3861103.

Data set [1] concerns the target T1, 6xHis-MBP-NHR-25 DBD (unmodified) (Caenorhabditis elegans, UniProt Q19345 1-173).
T1 sequence: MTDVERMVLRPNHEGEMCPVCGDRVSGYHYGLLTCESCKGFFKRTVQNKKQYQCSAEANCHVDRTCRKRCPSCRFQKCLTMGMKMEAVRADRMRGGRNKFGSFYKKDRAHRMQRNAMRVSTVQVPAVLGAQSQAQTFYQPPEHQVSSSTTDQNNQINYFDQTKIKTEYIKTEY
Nature of the data set: EMSA; 1 uM DNA; 50 mM Tris pH 8.0, 150 mM NaCl, 10 mM MgCl2, 10 mM DTT, 10 mM ATP, 400 ug/ml BSA, 1 uM dsDNA, 500 nM protein (200-700 nM titration), room temperature 30 min; 4-20% TBE gel, SYBR Gold. Conditions: protein: recombinant; tags: N-terminal 6xHis-MBP; blunt.

For data set [2], the target named is T1, 6xHis-MBP-NHR-25 DBD (unmodified). Nature of the data set: EMSA; 500 nM protein, 1 uM DNA; 50 mM Tris pH 8.0, 150 mM NaCl, 10 mM MgCl2, 10 mM DTT, 10 mM ATP, 400 ug/ml BSA, 1 uM dsDNA, 500 nM protein (200-700 nM titration), room temperature 30 min; 4-20% TBE gel, SYBR Gold. Conditions: protein: recombinant, tags: N-terminal 6xHis-MBP.

B1: 2xNR5RE WT (dsDNA)
DNA 1: CTAAAGGGAGCCAAGGTCATAGCGGCCAGTCAAGGCCAAGGGCGACAG
DNA 2: CTGTCGCCCTTGGCCTTGACTGGCCGCTATGACCTTGGCTCCCTTTAG
For B1, in data set [1], the binding result was “binds”.

B2: CYP11A1 (dsDNA)
DNA 1: ACATTTTATCAGCTTCTGGTATGGCCTTGAGCTGGTAGTTATAATCTTGGC
DNA 2: GCCAAGATTATAACTACCAGCTCAAGGCCATACCAGAAGCTGATAAAATGT
With B2, the binding result in data set [2] (blunt) was “binds”.

B3: MIS WT (dsDNA)
DNA 1: GATCCGCCAGGCACTGTCCCCCAAGGTCACCTTTGGTGTTGATAAGATCCC
DNA 2: TCGAGGGATCTTATCAACACCAAAGGTGACCTTGGGGGACAGTGCCTGGCG
On to B3, for which, in data set [2] (5' overhangs 4 nt on both strands), the binding result is listed as “binds”.
